# Where “and” joins values, the source holds several entries; their conditions need not be identical. Equal entries are not always repeated.
# Key:
# [1] = target: T1, mouse folate receptor alpha (mFRα), recombinant protein (mouse, UniProt P35846 25-232); assay: BLI, Avi-biotinylated FRα
# T1 construct: Bought recombinant proteins (e.g. biotinylated, Acro Biosystems FO1-M82E9); also called mFOLR1; Ms FOLR1
# Procedure: (§1) Purified VHHs ^{∘}100 nM) were analysed for binding to avi-tagged biotinylated FRα protein captured on streptavidin-biosensors via BLI.
# (§2) Off-rates of purified variants were determined to human, mouse, and cynomolgus FRα in BLI. In addition, binding of the affinity optimised variants to cell-expressed human FRα on HeLa cells was determined by flow cytometry ^{∘}FIG. 10 B).
# [2] = target: T2, human folate receptor alpha (hFRα), recombinant protein (human, UniProt P15328 25-233); assay: BLI, Avi-biotinylated FRα
# T2 construct: Bought recombinant proteins (His-tagged, or biotinylated via Avi-tag, e.g. AcroBiosystems FO1-H82E2, F01-H52H1); also called hFOLR1; huFOLR1
# Procedure: as §1, §2
# [3] = target: T3, human folate receptor alpha expressed on cells (transfected HEK293T, HeLa, MCF7, MDA-MB-231) (human, UniProt P15328 25-234); assay: flow cytometry on HeLa cells, anti-Flag detection
# T3 construct: HEK293T transiently transfected with human FOLR1; also called native human FRα; cell-expressed human FOLR1
# Procedure: EC₅₀ values are found in Table 9. Detection of VHH cell binding was done through anti-Flag M2 mIgG1 followed by anti-mFc-PE in flow cytometry. Results are depicted as mean fluorescence intensity ^{∘}MFI).
# as §2
# [4] = target: T1, mouse folate receptor alpha (mFRα), …; assay: BLI, purified VHH
# How it was run: (§3)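 Off-rates to folate receptor alpha from human, mouse and cynomolgus were measured by biolayer interferometry. The VHH proteins tested were made with a flag3-His6 tag in TG-1 E. coli at 0.5 L scale and isolated from the periplasm on Ni Sepharose FastFlow columns.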
# [5] = target: T2, human folate receptor alpha (hFRα), …; assay: BLI, purified VHH
# How it was run: as §3
# [6] = target: T4, cynomolgus folate receptor alpha, recombinant (cynomolgus, UniProt A0A2K5U044 25-233); assay: BLI, purified VHH
# T4 construct: also called cyFOLR1; cynomolgus FRα
# How it was run: as §3
# [7] = target: T1, mouse folate receptor alpha (mFRα), …; assay: BLI
# How it was run: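 Biotinylated human and mouse folate receptor alpha were immobilised on streptavidin biosensors, and off-rates were read by biolayer interferometry, with a 1:1 binding model applied in the calculation. Each variant's koff is expressed as a signed fold change relative to its wild-type VHH, positive as wild-type over variant for a better off-rate and negative as variant over wild-type for a worse one.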
# T2 sequence (P15328 25-233 limits assumed): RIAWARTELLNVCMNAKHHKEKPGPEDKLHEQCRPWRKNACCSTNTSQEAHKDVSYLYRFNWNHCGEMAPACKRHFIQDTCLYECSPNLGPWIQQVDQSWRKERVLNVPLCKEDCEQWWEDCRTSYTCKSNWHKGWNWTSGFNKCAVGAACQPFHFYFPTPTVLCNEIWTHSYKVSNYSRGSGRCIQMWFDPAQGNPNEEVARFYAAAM
# T3 sequence (P15328 25-234 limits assumed): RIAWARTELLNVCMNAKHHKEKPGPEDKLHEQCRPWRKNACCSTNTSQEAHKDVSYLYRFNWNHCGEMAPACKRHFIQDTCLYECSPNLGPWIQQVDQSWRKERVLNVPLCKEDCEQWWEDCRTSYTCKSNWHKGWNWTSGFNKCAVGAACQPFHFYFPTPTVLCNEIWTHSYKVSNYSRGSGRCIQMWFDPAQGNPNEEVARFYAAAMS
# T4 sequence (A0A2K5U044 entry or part of it): as the sequence (P15328 25-233 limits assumed) above, with I2T, W4R, R37K, A146P, H171Y counted along it
# T1 sequence (P35846 25-232 limits assumed): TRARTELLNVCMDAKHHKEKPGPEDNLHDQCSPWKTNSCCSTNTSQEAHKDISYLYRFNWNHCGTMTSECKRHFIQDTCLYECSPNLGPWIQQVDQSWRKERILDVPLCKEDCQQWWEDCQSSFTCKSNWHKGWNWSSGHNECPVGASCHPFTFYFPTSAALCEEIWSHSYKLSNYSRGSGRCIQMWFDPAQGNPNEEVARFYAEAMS
Binder,koff [1],koff [2],EC50 [3],MFI top [3],koff [4],koff [5],koff [6],koff [7],nm (Fold wt) [7]
"P01500019: 2HF09(Q1E, Q5V, A14P, G26E, G28P, I51V, G54H, D72E, N73G, L79Y, K83R, Q108L)-HIS6 (VHH, Entry includes the tag; also called P0150019; P01500001[G26E, G28P, D72E, N73G]) VHH: EVQLVESGGGLVQPGGSLRLSCAASESPFSGMIMGWYRQAPGKQRELVATVTSHGTTNYADSVKGRFTISREGAKNTVYLQMNSLRPEDTAVYYCNAHFPGIYWGKGTLVTVSS",8.33e-05 s⁻¹,0.000206 s⁻¹,–,–,–,–,–,–,–
"P01500048: P01500001(S30I, D72P)-FLAG3-HIS6 (VHH, also called P0150048) VHH: EVQLVESGGGLVQPGGSLRLSCAASGSGFIGMIMGWYRQAPGKQRELVATVTSHGTTNYADSVKGRFTISRPNAKNTVYLQMNSLRPEDTAVYYCNAHFPGIYWGKGTLVTVSS",0.000142 s⁻¹,0.00147 s⁻¹,2.46 nM,59800 MFI,0.000142 s⁻¹,0.0013 s⁻¹,0.00133 s⁻¹,–,–
"P01500047: P01500001(G26E, G28T, S30I, I33L)-FLAG3-HIS6 (VHH, also called P0150047) VHH: EVQLVESGGGLVQPGGSLRLSCAASESTFIGMLMGWYRQAPGKQRELVATVTSHGTTNYADSVKGRFTISRDNAKNTVYLQMNSLRPEDTAVYYCNAHFPGIYWGKGTLVTVSS",0.000219 s⁻¹,0.00119 s⁻¹,3.19 nM,59100 MFI,0.000219 s⁻¹,0.000971 s⁻¹,0.000219 s⁻¹,–,–
"P01500042: P01500001(G28T, S30I)-FLAG3-HIS6 (VHH, also called P0150042) VHH: EVQLVESGGGLVQPGGSLRLSCAASGSTFIGMIMGWYRQAPGKQRELVATVTSHGTTNYADSVKGRFTISRDNAKNTVYLQMNSLRPEDTAVYYCNAHFPGIYWGKGTLVTVSS",0.00038 s⁻¹,0.00338 s⁻¹,5.19 nM,54700 MFI,0.00038 s⁻¹,0.00274 s⁻¹,0.00038 s⁻¹,–,–
"P01500044: P01500001(S30I, D72E, N73G)-FLAG3-HIS6 (VHH, also called P0150044) VHH: EVQLVESGGGLVQPGGSLRLSCAASGSGFIGMIMGWYRQAPGKQRELVATVTSHGTTNYADSVKGRFTISREGAKNTVYLQMNSLRPEDTAVYYCNAHFPGIYWGKGTLVTVSS",0.000126 s⁻¹,0.000555 s⁻¹,3.29 nM,64100 MFI,0.000126 s⁻¹,0.000464 s⁻¹,0.000737 s⁻¹,–,–
"P01500041: P01500001(D72P, N73G)-FLAG3-HIS6 (VHH, also called P0150041) VHH: EVQLVESGGGLVQPGGSLRLSCAASGSGFSGMIMGWYRQAPGKQRELVATVTSHGTTNYADSVKGRFTISRPGAKNTVYLQMNSLRPEDTAVYYCNAHFPGIYWGKGTLVTVSS",0.000191 s⁻¹,0.00113 s⁻¹,4.2 nM,63000 MFI,0.00014 s⁻¹,0.00094 s⁻¹,0.00014 s⁻¹,–,–
"P01500049: P01500001(G26E)-FLAG3-HIS6 (VHH, also called P0150049) VHH: EVQLVESGGGLVQPGGSLRLSCAASESGFSGMIMGWYRQAPGKQRELVATVTSHGTTNYADSVKGRFTISRDNAKNTVYLQMNSLRPEDTAVYYCNAHFPGIYWGKGTLVTVSS",0.000826 s⁻¹,0.00648 s⁻¹,10.9 nM,46600 MFI,0.00105 s⁻¹,0.00569 s⁻¹,0.000393 s⁻¹,–,–
"P01500043: P01500001(G28T, I33L, D72E)-FLAG3-HIS6 (VHH, also called P0150043) VHH: EVQLVESGGGLVQPGGSLRLSCAASGSTFSGMLMGWYRQAPGKQRELVATVTSHGTTNYADSVKGRFTISRENAKNTVYLQMNSLRPEDTAVYYCNAHFPGIYWGKGTLVTVSS",0.000114 s⁻¹,0.000639 s⁻¹,2.4 nM,60200 MFI,0.000114 s⁻¹,0.000534 s⁻¹,0.000428 s⁻¹,–,–
"P01500046: P01500001(N73P)-FLAG3-HIS6 (VHH, also called P0150046) VHH: EVQLVESGGGLVQPGGSLRLSCAASGSGFSGMIMGWYRQAPGKQRELVATVTSHGTTNYADSVKGRFTISRDPAKNTVYLQMNSLRPEDTAVYYCNAHFPGIYWGKGTLVTVSS",0.000777 s⁻¹ and 0.000731 s⁻¹,0.00371 s⁻¹ and 0.004 s⁻¹,6.91 nM,50800 MFI,0.000754 s⁻¹,0.00361 s⁻¹,0.0036 s⁻¹,–,–
"P01500045: P01500001(G26E, I33L)-FLAG3-HIS6 (VHH, also called P0150045) VHH: EVQLVESGGGLVQPGGSLRLSCAASESGFSGMLMGWYRQAPGKQRELVATVTSHGTTNYADSVKGRFTISRDNAKNTVYLQMNSLRPEDTAVYYCNAHFPGIYWGKGTLVTVSS",0.00036 s⁻¹,0.00187 s⁻¹,4.71 nM,58900 MFI,0.00036 s⁻¹,0.00157 s⁻¹,0.00036 s⁻¹,–,–

# The remaining lines, values ahead:
koff [1],koff [2],EC50 [3],MFI top [3],koff [4],koff [5],koff [6],koff [7],nm (Fold wt) [7],Binder
0.000147 s⁻¹,0.000937 s⁻¹,5.18 nM,55800 MFI,0.000147 s⁻¹,0.000968 s⁻¹,0.000147 s⁻¹,–,–,"P01500054: P01500001(I33L, N73P)-FLAG3-HIS6 (VHH, also called P0150054) VHH: EVQLVESGGGLVQPGGSLRLSCAASGSGFSGMLMGWYRQAPGKQRELVATVTSHGTTNYADSVKGRFTISRDPAKNTVYLQMNSLRPEDTAVYYCNAHFPGIYWGKGTLVTVSS"
4.99e-05 s⁻¹ and 8.33e-05 s⁻¹,0.000474 s⁻¹ and 0.000555 s⁻¹,3.31 nM,61000 MFI,8.41e-05 s⁻¹,0.000546 s⁻¹,0.00078 s⁻¹,–,–,"P01500051: P01500001(D72E, N73G)-FLAG3-HIS6 (VHH, also called P0150051) VHH: EVQLVESGGGLVQPGGSLRLSCAASGSGFSGMIMGWYRQAPGKQRELVATVTSHGTTNYADSVKGRFTISREGAKNTVYLQMNSLRPEDTAVYYCNAHFPGIYWGKGTLVTVSS"
0.000167 s⁻¹ and 0.000214 s⁻¹,0.000922 s⁻¹ and 0.00105 s⁻¹,2.63 nM,51200 MFI,0.000191 s⁻¹,0.000943 s⁻¹,0.000167 s⁻¹,–,–,"P01500053: P01500001(S30I, I33L, N73P)-FLAG3-HIS6 (VHH, also called P0150053) VHH: EVQLVESGGGLVQPGGSLRLSCAASGSGFIGMLMGWYRQAPGKQRELVATVTSHGTTNYADSVKGRFTISRDPAKNTVYLQMNSLRPEDTAVYYCNAHFPGIYWGKGTLVTVSS"
0.000292 s⁻¹,0.0019 s⁻¹,–,–,0.000333 s⁻¹,0.00204 s⁻¹,0.000292 s⁻¹,–,–,"P01500059: P01500001(G26E, D72E)-FLAG3-HIS6 (VHH, also called P0150059) VHH: EVQLVESGGGLVQPGGSLRLSCAASESGFSGMIMGWYRQAPGKQRELVATVTSHGTTNYADSVKGRFTISRENAKNTVYLQMNSLRPEDTAVYYCNAHFPGIYWGKGTLVTVSS"
–,–,–,–,–,–,–,0.0975 s⁻¹,60,"P01500083: P0150001 with A24V, S27L, M32I, N76D (VHH) VHH: EVQLVESGGGLVQPGGSLRLSCAVSGLGFSGIIMGWYRQAPGKQRELVATVTSHGTTNYADSVKGRFTISRDNAKDTVYLQMNSLRPEDTAVYYCNAHFPGIYWGKGTLVTVSS"
0.000168 s⁻¹,0.00128 s⁻¹,3.61 nM,62500 MFI,0.000168 s⁻¹,0.00105 s⁻¹,0.00109 s⁻¹,–,–,"P01500050: P01500001(G28T, D72P)-FLAG3-HIS6 (VHH, also called P0150050) VHH: EVQLVESGGGLVQPGGSLRLSCAASGSTFSGMIMGWYRQAPGKQRELVATVTSHGTTNYADSVKGRFTISRPNAKNTVYLQMNSLRPEDTAVYYCNAHFPGIYWGKGTLVTVSS"
–,–,–,–,–,–,–,0.0618 s⁻¹,38,"P01500082: P0150001 with A24V, S27L, M32I (VHH) VHH: EVQLVESGGGLVQPGGSLRLSCAVSGLGFSGIIMGWYRQAPGKQRELVATVTSHGTTNYADSVKGRFTISRDNAKNTVYLQMNSLRPEDTAVYYCNAHFPGIYWGKGTLVTVSS"
2.4e-05 s⁻¹,0.000382 s⁻¹,3.77 nM,59000 MFI,2.4e-05 s⁻¹,0.000382 s⁻¹,4.24e-05 s⁻¹,–,–,"P01500055: P01500001(V51R, D72E, N73G)-FLAG3-HIS6 (VHH, also called P0150055) VHH: EVQLVESGGGLVQPGGSLRLSCAASGSGFSGMIMGWYRQAPGKQRELVATRTSHGTTNYADSVKGRFTISREGAKNTVYLQMNSLRPEDTAVYYCNAHFPGIYWGKGTLVTVSS"
0.000246 s⁻¹,0.0018 s⁻¹,4.35 nM,53900 MFI,0.000246 s⁻¹,0.00146 s⁻¹,0.00281 s⁻¹,–,–,"P01500052: P01500001(V51R, D72E)-FLAG3-HIS6 (VHH, also called P0150052) VHH: EVQLVESGGGLVQPGGSLRLSCAASGSGFSGMIMGWYRQAPGKQRELVATRTSHGTTNYADSVKGRFTISRENAKNTVYLQMNSLRPEDTAVYYCNAHFPGIYWGKGTLVTVSS"
0.000484 s⁻¹,0.00285 s⁻¹,–,–,0.000484 s⁻¹,0.00318 s⁻¹,0.00369 s⁻¹,–,–,"P01500058: P01500001(G26E, G28P)-FLAG3-HIS6 (VHH, also called P0150058) VHH: EVQLVESGGGLVQPGGSLRLSCAASESPFSGMIMGWYRQAPGKQRELVATVTSHGTTNYADSVKGRFTISRDNAKNTVYLQMNSLRPEDTAVYYCNAHFPGIYWGKGTLVTVSS"
